These results are taken from patent publication US20200197495A1.

Holding throughout (experiment): cell-based or functional assay
Test [1] concerns the target Advate (rec. FVIII from Shire) (UniProt P00451).
Test [2] deals with CSL627 (recombinant B-Domain-deleted single chain FVIII, rVIII-SingleChain) (Homo sapiens (Human)) (UniProt P00451).
Test [3] addresses Helixate (rec. FVIII from CSL Behring) (UniProt P00451).
Test [4] deals with ReFacto (rec. FVIII from Pfizer) (UniProt P00451).

Consider “CSL626 (truncated VWF (764-1242)-albumin fusion, dimer)”, for which the IC50, inhibition of factor VIII uptake in MDDCs in test [1] amounted to 2.23 µM; in test [2], 1.72 µM; in test [3], 1.69 µM; in test [4] it was 1.57 µM.

“plasma-derived von Willebrand Factor (pdVWF; BIOSTATE, human plasma derived VWF from CSL Behring) (from UniProt P04275 23-2813)”: in test [2], the IC50, inhibition of factor VIII uptake in MDDCs worked out at 0.744 µM; the reduction of CSL627 antigen presentation, HLA-DQB1 restricted peptide clusters stood at 10 fold; the reduction of CSL627 antigen presentation, peptide clusters (printed HLA-DQB1 a second time) amounted to 3.5 fold; the reduction of CSL627 antigen presentation, unique HLA-DPB1 bound peptides turned out to be 14.2 fold. The reduction of CSL627 antigen presentation, unique HLA-DQB1 bound peptides in test [2] worked out at 21.7 fold. Further, in test [3], the IC50, inhibition of factor VIII uptake in MDDCs stood at 0.823 µM. In test [4], this substance returned an IC50, inhibition of factor VIII uptake in MDDCs of 0.963 µM.

As for “CSL650 (rec. VWF-albumin fusion from CSL Behring)”, the IC50, inhibition of factor VIII uptake in MDDCs is 0.769 µM in test [1], 0.75 µM in test [2], 0.552 µM in test [3] and 0.778 µM in test [4].
